# Test results taken from the DeepSol protein solubility set.
# Assay: soluble on expression in E. coli; label from the status in PepcDB or PDB records
row,Sequence,soluble on expression in E. coli
1,GPGSMHKDGPRLWDDTLVEAERIATDSKARYLQLPTPDREAEMQRTRSQFFLLLRERVRNTYLRRISKFNPGEPLTWKYISGRKKASLPSPTSMLLGDGQHTYKTARRAANALNRIFLPFHPSHKAVRFSKGINRQSASLNINASFLFGQQNNNESAATSTSGSSLPSSSESQDKNEAATTSGLVAHLHSPLDAPFNRTELLAALRNTPYGKAPGPDEVYSEALRHISSKGLRFLLRCINHSWTTGTIPVEWRRATIVPLLKPGKSPELLESYRPISLTSIVSKVAEKMVLKRLLWVWTPHPHQYAYRSMRTTTMQLAHLIHDVEHNRNHYFQVSLPKKSGIGNQLHYRPHRTLLVLVDFSKAFDSIDHRVLSRLLANIPGVNCRRWLRNFLCGRYAKTRVGHRHSDRRPMLRGVPQGSVL,not soluble
2,MFQLPILNFSPQQVAGVCETLEESGDVERLGRFLWSLPVAPAACEALNKNESVLRARAIVAFHGGNYRELYHILENHKFTKESHAKLQALWLEAHYQEAEKLRGRPLGPVDKYRVRKKFPLPRTIWDGEQKTHCFKERTRHLLREWYLQDPYPNPSKKRELAQATGLTPTQVGNWFKNRRQRDRAAAAKNRLQQQVLSQGPGRVLRSEGEGTPEVLGVASSPAASLSSKAATSAISITSSDSECDI,soluble
3,MNTAVKAAVAAALVMGVSSFANAAGSNTGTVTFTGTIEDSPCSIVVGDEHQTVNLGHIGTGSLMGGKESSKVDFHIGLENCAFTTEKEASTVFSAIGNESSANPGSVALMRIGGGEMAGSSIVIGNHLGSAIKLGDAYSENLTMNGSVAAAKQTLNFKAWVKGDSAATTIDTGEFSSTVNFTISYL,not soluble
4,MNTEEQPVTASLVAEAQRLDFLPTYFGPRLMMRGEALVYAWMRRLCERYNGAYWHYYALSDGGFYMAPDLAGRLEIEVNGNGFRGELSADAAGIVATLFALGQLAAEIADTDAADALIDRYHFLRGFAAGHPEAAAIYRAID,soluble
5,MAYVGDDLIDWPVMEKVGLSVAVADAHPLLIPRADYVTRIAGGRGAVREVCDLLLLAQGKLDEAKGQSI,not soluble
6,MSLMLSHNPIVEPFALAHATIVTGDKAGTILRNMTIVVGADGRIEQVAPSIETSIPAEYHYLDGTGKIVMPGLINAHTHLFSQGKPLNPKLATPKGQRMVATFAHSPLGKPYMAATVKHNATTLLESGVTTIRTLGDVGYEVVTLRDQIDAGQILGPRILASGPLMAIPEGHGAPLIALTSGTPEEARTAVAQNLKAGVNAIKIAATGGVTDAQEIGEAGSPQMSVEQMRAICDEAHQYGVIVGAHAQSPEGVRRSLLAGVDTIEHGSVLDDELIGMFRHNPNALRGYSALIPTLSAGLPLTLLGQDVTGITDIQLENSKNVVGGMVSGARQAHEAGLMIGVGTDTGMTFVPQYATWRELELLVAYAGFSPAEALHAATAVNASILGVDAETGSLEVGKSADLLVLNANPLDDLRALEHPALVIAAGHPVWRPGPKRFADIDALLDEAYAEGHHHHHH,soluble
7,MIIYRDLISHDVMFSDIYKIREIADGLCLEVEGKMVSRTEGNIDDSLIGGNASAEGPEGEGTESTVITGVDIVMNHHLQETSFTKEAYKKYIKDYMKSIKGKLEEQRPERVKPFMTGAAEQIKHILANFKNYQFFIGENMNPDGMVALLDYREDGVTPYMIFFKDGLEMEKCLEHHHHHH,soluble
8,MGLSDWELAAARAAIARGLDEDLRYGPDVTTLATVPASATTTASLVTREAGVVAGLDVALLTLNEVLGTNGYRVLDRVEDGARVPPGEALMTLEAQTRGLLTAERTMLNLVGHLSGIATATAAWVDAVRGTKAKIRDTRKTLPGLRALQKYAVRTGGGVNHRLGLGDAALIKDNHVAAAGSVVDALRAVRNAAPDLPCEVEVDSLEQLDAVLPEKPELILLDNFAVWQTQTAVQRRDSRAPTVMLESSGGLSLQTAATYAETGVDYLAVGALTHSVRVLDIGLDM,soluble
9,SLFGYHDVEDFQAEIGEYKIKTERIGPFYSYVRENGERKEKNLSVETGRIIVNPVEPVNLPKEITNFLQIKFSKPFLAEPKSAVEVYATFPVEIAVFIAAKKNVGLVDVFSLQKPKYTLYGNPRAGIICRYWESELYSEIPQVDKYREGVIKLRIVNSDDEWVEVSNAVFDVYGMKIYYNEEMVCSSASVNIVSPKVAETRFIEQPLREKMKKALELYTARRIAVTSLKFVMEWGL,not soluble
10,GSSHHHHHHSSGRENLYFQGHMPKRRKSVTGEIVLITGAGHGIGRLTAYEFAKLKSKLVLWDINKHGLEETAAKCKGLGAKVHTFVVDCSNREDIYSSAKKVKAEIGDVSILVNNAGVVYTSDLFATQDPQIEKTFEVNVLAHFWTTKAFLPAMTKNNHGHIVTVASAAGHVSVPFLLAYCSSKFAAVGFHKTLTDELAALQITGVKTTCLCPNFVNTGFIKNPSTSLGPTLEPEEVVNRLMHGILTEQKMIFIPSSIAFLTTLERILPEGS,soluble
11,KKDDFRNEFDHLLIEQANHAIEKGEHQLLYLQHQLDELNENKSKELQEKIIRELDVVCAMIEGAQGALERELKRTDLNILERFNYEEAQTLSKILLKDLKETEQKVKDIQTQ,soluble
12,ADNEEDVEAEEEYTELTDISGVGPSKAESLREAGFESVEDVRGADQSALADVSGIGNALAARIKADVGGLEVESETEAEVEEEGGEEAPDEDVETELQARGLTEKTPDLSDEDARLLTQRHRVGKPQFNRQDHHKKKRVSTSWRKPRGQLSKQRRGIKGKGDTVEAGFRSPTAVRGKHPSGFEEVRVHNVDDLEGVDGDTEAVRIASKVGARKRERIEEEAEDAGIRVLNPTYVEVEVSE,soluble
13,MAHHHHHHMVSNVADVRQINLTDSSNFLLMACDGLWDVVENEEATQFVRDFLSYTPDVGSSPEATKRALNNCCQKLAEFAVDRGSTDNVSVMLLFFHDVADVVAGFDKPVGAVVSPPASQVLSPRLTGPSRGIPFGSSMLDGGLHTSSGTSGTRRPSFGSVSSLHGRGRSIW,not soluble
14,MKIFNNVHCRIRNTISCSNYIFSAVWNFLISVFINKTNFNNSVYCRIFKVSIGLRKSISSTTRTRWVPVVFICSRSTNRWTGARSVNPIRNLIYIKLSILNKVRPIFRLEHHHHHH,not soluble
15,MDVTQLKMLRNAKVVSEIKKGFSIDKKYQVDETYLVRVFPKELLQTRKQEFEIIQALGSQTPFVPRAYDFGCTGGEGYMIIGYVRGEDAENGMFRLSHSEQFKAGFSAGEILREVHKIPLDIPKMNWLDFQTAKFKRKVEELKELEITASFLTETEQFVYENIARLKNRPVCLQHGDFHPANIILKNKKFAGLIDFNRLEFGDPLFDLAKIGFFTTEVSIPFARGNILGYIDKEEVTDFWNLYALYTAMHITSAVNWAAKNESRNFNKLMNYAAKTAASHDNFQKLMPDWMNKEEFK,not soluble
16,MLFLFVDGLGLGGALEDLFPFLLALAPTPLDATLGVEGLPQSGTGQTALLTGENAARLLGHHQGPFPSPRLRPLLAQGLYAWAKGKGLRVLHANGYRPDYLRRATEGKRLLLSAFAQAARLAGIPLLPLGHPLALLPGFWEDPYGAGAKAAALARAFDLVVLEYWALDLAAHRHPESLPDRFRELTLFLQGFLAEGGVLLLASDHGNAEEPWHPRHTLNPVPLVYTEEAPPPPEDLTGVFPWLRTIITSKTNKSDRNT,soluble
17,AIADNGDWGYMMTDPVTLNVGGHLYTTSLTTLTRYPDSMLGAMFGGDFPTARDPQGNYFIDRDGPLFRYVLNFLRTSELTLPLDFKEFDLLRKEADFYQIEPLIQCLNDPKPLYPMDTFEEVVELSSTRKLSKYSNPVAVIITQLTITTKVHSLLEGISNYFTKWNKHMMDTRDCQVSFTFGPCDYHQEVSLRVHLMEYITKQGFTIRNTRVHHMSERANENTVEHNWTFCRLARKTDD,soluble
18,GELPEKSKLQEIYQELTRLKAAVGELPEKSKLQEIYQELTRLKAAVGELPEKSKLQEIYQELTRLKAAVGELPEKSKLQEIYQELTRLKAAVGELPEKSKLQEIYQELTELKAAVGELPEKSKLQEIYQELTQLKAAVGELPDQSKQQQIYQELTDLKTAFERLGHH,soluble
19,AIAEKLSEWKKFRIDSDKNDWIEQVDISGAKSLYEKEAQDKPLRVLVLYGSLRQRSFTRCCAYEAARLLDHLGADVRVFDPTELPVKGQVEETHHKVQELRELALWSEAQFWCSPEMHGNVTGCFKNQIDWIPLSLGSVRPTQGRTLAICQVNGGSQSFNAVNTLRVLGRWMRMFTIPNQSSIPKAWQEFDEYNRMKPSPLRDRLVDVVEELVKFSLMLRDHSSFHCVCQKL,soluble
20,MTTPYCFNLAMRKSSRLITQFYEDRLSAVGLKSGQFSILKAVSFLKQTSNKELQGILVLDQTTLSRNLKPLFRDGYLKLSPDSNDARVKLISLTTQGQALYEKADPLWQKAQDDLEKKLGSEEVKNILTLADSFVKALAR,not soluble
21,MPVSSRRCGMITRREAERLCKSFLGDNTPPRLPDDFAFNVQHKCAWGCRGSFLPSRYNSSRAKCIKCSYCGMFFSPNKFIFHSHRITTNDRYVQPDAANFNSWRRHMSLSGNDYDEKIIHAWEDVKAMFNGGTRKRLVGSSINPRSPGSPTQSTAVSSGVGSSSCGSPTSFERDTNEVDGKSGSSLPQRSQIDSQYNYGTVAAAAAVVGVTAVAAATELCSGLHVAAEGPTLSAALRKKNPLEHHHHHH,not soluble
22,MSLKQYKAYLIDLDGTMYMGTDEIDGAKQFIDYLNVKGIPHLYVTNNSTKTPEQVTEKLREMHIDAKPEEVVTSALATADYISEQSPGASVYMLGGSGLNTALTEAGLVIKNDEHVDYVVIGLDEQVTYEKLAIATLGVRNGATFISTNPDVSIPKERGLLPGNGAITSVVSVSTGVSPQFIGKPEPIIMVKALEILGLDKSEVAMVGDLYDTDIMSGINVGMDTIHVQTGVSTLEDVQNKNVPPTYSFKDLNEAIAELEKEGHHHHHH,soluble
23,MDYYRVGTLVNTHGIRGEVKVVVVTDFPEERFKVGQQLSLFKTPDETTGGITVKIAKAREQKGLYFLTFEGLDNINDVERYKGWTIKVPAEALHALPAGEYYYHQIVGLQVVTTADEPLGTIKEILSPGANDVWVVKRDHGQSDVLLPKIPQVIKDVDLDAGVVTVELMEGLIDLEHHHHHH,soluble
24,MTETELSERLRTWLSQDNERMRALELVLQCAQVHDMPQWCIAAGFVRNLVWDKLHGFDRQPLNDIDLIYYCPLDARPERDWAIEACLRACAPELPWSVKNQARMHLKNHDNPYQSSSDAMAYWPEMETAVGVSLNPTLKTSASVIENLQIVAPFGLASLLALTLTRNPRRSLAVFEQRIIAKGWLSQYPQLVLAN,soluble
25,MGSDKIHHHHHHMKHYALLISFLALSACSQGSEDLNEWMAQTRREAKAEIIPFQAPTLPVAPVYSPPQLTGPNAFDFRRMETDKKGENAPDTKRIKETLEKFSLENMRYVGILKSGQKVSGFIEAEGYVYTVGVGNYLGQNYGRIESITDDSIVLNELIEDSTGNWVSRKAELLLNSSDKNTEQAAAPAAEQN,not soluble
26,MKRIITLTVVNRSGVLNRITGLFTKRHYNIESITVGHTETAGVSRITFVVHVEGENDVEQLTKQLNKQIDVLKVTDITNQSIVQRELALIKVVSAPSTRTEINGIIEPFRASVVDVSRDSIVVQVTGESNKIEALIELLKPYGIKEIARTGTTAFARGTSKRRHPIKQYLLYKTLEHHHHHH,soluble
27,MRIVEVYSHLNGLEYIQVHLPHIWEEIQEIIVSIDAEACRTKESKEKTKQGQILYSPVALNEAFKEKLEAKGWKESRTNYYVTADPKLIRETLSLEPEEQKKVIEAAGKEALKSYNQTDFVKDRVAIEVQFGKYSFVAYDLFVKHMAFYVSDKIDVGVEILPMKELSKEMSSGISYYEGELYNVIRQGRGVPAVPLVLIGIAP,soluble
